Results published in patent US20070141716.

Key:
[1] = molecular target: UbcH5c, P61077
[2] = molecular target: UBC13/Uev1 heterodimer, P61088
Sequence of UBC13/Uev1 heterodimer, P61088 (P61088 whole entry, chain 1 of 2): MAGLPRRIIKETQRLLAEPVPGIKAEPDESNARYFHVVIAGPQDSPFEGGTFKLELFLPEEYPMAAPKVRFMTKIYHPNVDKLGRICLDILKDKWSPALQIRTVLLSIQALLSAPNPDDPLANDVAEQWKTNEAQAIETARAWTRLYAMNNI
Sequence of UBC13/Uev1 heterodimer, P61088 (chain, as listed by the source, chain 2 of 2): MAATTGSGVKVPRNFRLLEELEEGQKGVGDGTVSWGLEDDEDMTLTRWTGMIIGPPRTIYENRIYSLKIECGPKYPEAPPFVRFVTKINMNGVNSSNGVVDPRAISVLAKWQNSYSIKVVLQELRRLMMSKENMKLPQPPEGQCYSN

Sequence of UbcH5c, P61077 (P61077 whole entry): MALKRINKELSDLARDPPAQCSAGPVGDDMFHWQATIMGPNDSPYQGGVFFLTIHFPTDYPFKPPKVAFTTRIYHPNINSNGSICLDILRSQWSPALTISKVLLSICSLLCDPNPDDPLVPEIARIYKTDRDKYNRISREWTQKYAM

B1: glutathione-S-transferase protein (GST)-PEM-3-like fusion protein (protein)
chain: MMAAMLSHAYGPGGCGAAAAALNGEQAALLRRKSVNTTECVPVPSSEHVAEIVGRQGCKIKALRAKTNTYIKTPVRGEEPIFVVTGRKEDVAMAKREILSAAEHFSMIRASRNKNGPALGGLSCSPNLPGQTTVQVRVPYRVVGLVVGPKGATIKRIQQQTHTYIVTPSRDKEPVFEVTGMPENVDRAREEIEMHIAMRTGNYIELNEENDFHYNGTDVSFEGGTLGSAWLSSNPVPPSRARMISNYRNDSSSSLGSGSTDSYFGSNRLADFSPTSPFSTGNFWFGDTLPSVGSEDLAVDSPAFDSLPTSAQTIWTPFEPVNPLSGFGSDPSGNMKTQRRGSQPSTPRLSPTFPESIEHPLARRVRSDPPSTGNHVGLPIYIPAFSNGTNSYSSSNGGSTSSSPPESRRKHDCVICFENEVIAALVPCGHNLFCMECANKICEKRTPSCPVCQTAVTQAIQIHS
ubiquitin ligase activity by TR-FRET [1]: PEM-3-like acts as an E3 ligase with both UbcH5 and UBC13/Uev1 | free polyubiquitin chain formation, immunoblot [2]: free polyubiquitin chains were only generated in the presence of UBC13/Uev1 heterodimer and a complete ubiquitin conjugation system | in vitro self-ubiquitination, anti-ubiquitin immunoblot [2]: high molecular weight PEM-3-like-ubiquitin adducts were detected by anti-ubiquitin immunoblot analysis | ubiquitin ligase activity by TR-FRET [2]: PEM-3-like acts as an E3 ligase with both UbcH5 and UBC13/Uev1
